Here are results for three molecules from paper PMC2767265 (Nature structural & molecular biology, 2008).

Read-outs that look alike come from different tables or passages of the source.

What all share (assay): other fluorescence titration
For test [1], the target named is T1, Ffh (E. coli SRP protein), wild type (E. coli, UniProt P0AGD7 1-453).
T1 sequence (looked up): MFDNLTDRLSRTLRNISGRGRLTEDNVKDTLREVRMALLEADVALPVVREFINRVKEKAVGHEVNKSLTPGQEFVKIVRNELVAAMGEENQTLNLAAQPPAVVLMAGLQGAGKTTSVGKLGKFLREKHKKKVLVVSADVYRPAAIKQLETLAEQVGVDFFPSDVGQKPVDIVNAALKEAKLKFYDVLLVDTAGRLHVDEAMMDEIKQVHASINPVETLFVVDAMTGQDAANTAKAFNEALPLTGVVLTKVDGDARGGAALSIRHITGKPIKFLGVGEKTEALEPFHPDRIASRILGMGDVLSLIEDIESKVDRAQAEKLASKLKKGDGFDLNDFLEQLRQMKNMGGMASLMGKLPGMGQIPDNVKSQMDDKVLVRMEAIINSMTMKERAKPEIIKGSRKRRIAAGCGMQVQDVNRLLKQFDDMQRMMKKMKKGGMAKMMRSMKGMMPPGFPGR

In test [2] the target is T1, Ffh (E. coli SRP protein), wild type. This is another data set of the same source.
For test [3] the target is unchanged. The source holds these as a separate data set.

B1: FtsY lacking the first 46 amino acids of the A domain (wild-type reference) (domain or fragment, E. coli, UniProt P10121 47-497, looked up)
chain: ASEQAVEEQPQAHTEAEAETFAADVVEVTEQVAESEKAQPEAEVVAQPEPVVEETPEPVAIEREELPLPEDVNAEAVSPEEWQAEAETVEIVEAAEEEAAKEEITDEELETALAAEAAEEAVMVVPPAEEEQPVEEIAQEQEKPTKEGFFARLKRSLLKTKENLGSGFISLFRGKKIDDDLFEELEEQLLIADVGVETTRKIITNLTEGASRKQLRDAEALYGLLKEEMGEILAKVDEPLNVEGKAPFVILMVGVNGVGKTTTIGKLARQFEQQGKSVMLAAGDTFRAAAVEQLQVWGQRNNIPVIAQHTGADSASVIFDAIQAAKARNIDVLIADTAGRLQNKSHLMEELKKIVRVMKKLDVEAPHEVMLTIDASTGQNAVSQAKLFHEAVGLTGITLTKLDGTAKGGVIFSVADQFGIPIRYIGVGERIEDLRPFKADDFIEALFARED
In the case of B1, in test [1], the affinity, expressed as Kd, was 82.7 ± 13 nM; the koff worked out at 8.6e-06 s⁻¹; the kon is 104 M⁻¹ s⁻¹. Besides, in test [2], the Kd was 68.4 ± 4.2 nM, the koff came to 0.00265 s⁻¹ and the kon was found to be 38800 M⁻¹ s⁻¹.

B2: FtsYΔN1 (FtsY residues 221-497, lacks the A domain and the first helix of the N domain) (domain or fragment, E. coli, UniProt P10121 221-497, looked up)
chain: KKIDDDLFEELEEQLLIADVGVETTRKIITNLTEGASRKQLRDAEALYGLLKEEMGEILAKVDEPLNVEGKAPFVILMVGVNGVGKTTTIGKLARQFEQQGKSVMLAAGDTFRAAAVEQLQVWGQRNNIPVIAQHTGADSASVIFDAIQAAKARNIDVLIADTAGRLQNKSHLMEELKKIVRVMKKLDVEAPHEVMLTIDASTGQNAVSQAKLFHEAVGLTGITLTKLDGTAKGGVIFSVADQFGIPIRYIGVGERIEDLRPFKADDFIEALFARED
In test [1], B2 displayed a dissociation constant Kd of 7.98 ± 1.1 nM, a koff of 5.47e-06 s⁻¹ and a kon of 685 M⁻¹ s⁻¹. In addition, in test [2], the equilibrium dissociation constant (Kd) worked out at 14.9 ± 2.1 nM, the dissociation rate constant (koff) turned out to be 0.000605 s⁻¹ and the kon came out at 40500 M⁻¹ s⁻¹.

B3: FtsY204 (FtsY residues 204-497, includes helix N1) (domain or fragment, E. coli, UniProt P10121 204-497, looked up)
chain: LKTKENLGSGFISLFRGKKIDDDLFEELEEQLLIADVGVETTRKIITNLTEGASRKQLRDAEALYGLLKEEMGEILAKVDEPLNVEGKAPFVILMVGVNGVGKTTTIGKLARQFEQQGKSVMLAAGDTFRAAAVEQLQVWGQRNNIPVIAQHTGADSASVIFDAIQAAKARNIDVLIADTAGRLQNKSHLMEELKKIVRVMKKLDVEAPHEVMLTIDASTGQNAVSQAKLFHEAVGLTGITLTKLDGTAKGGVIFSVADQFGIPIRYIGVGERIEDLRPFKADDFIEALFARED
modifications: for NMR: 13C on the methyl groups of isoleucine, leucine and valine
B3: the binding result in test [3] is reported as “binds”.

As usually defined, the Kd is the concentration at which binding is half-saturated. A high value points to a looser complex. The term koff denotes a measure of how fast the partners let go of each other. The kon is the rate constant with which the complex forms.
